Results taken from PMC5623066.

Target: TDP2 used in vitro (construct not stated) (UniProt O95551)

SUMO2 used in vitro (from UniProt P61956 10-93) (natural protein)
Kd: 880 nM
